In patent publication CN115141270A (SHENZHEN KANGMAI BIOTECHNOLOGY CO LTD, dated 2022):

Tests used:
[1] = molecular target: SARS-CoV-2 东南亚株 (MW341443) live virus, spike glycoprotein (SARS-CoV-2); experiment: cell-based or functional assay
[2] = molecular target: SARS-CoV-2 英国流行株 (MW255832) live virus, spike glycoprotein (SARS-CoV-2); experiment: cell-based or functional assay

B1: 抗体nCoV617 (anti-coronavirus spike glycoprotein human monoclonal antibody) (antibody, V domains shown)
VH: QVQLVESGGGVVQPGRSLRLSCAASGFTFSSYAMHWVRQAPGKGLEWVALISYDGSNKYYADSVKGRFTISRDNSKNTLYLQMNSLRAEDTAVYYCARGLGLRFLEWPISSYWGQGTLVTVSS
VL: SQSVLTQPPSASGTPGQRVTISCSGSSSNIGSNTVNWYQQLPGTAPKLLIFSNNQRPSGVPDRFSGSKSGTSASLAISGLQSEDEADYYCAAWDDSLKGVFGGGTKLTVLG
notes: also called 抗S蛋白抗体; 抗冠状病毒刺突糖蛋白单克隆抗体
[1]
  IC50 (neutralisation of live virus on Vero E6 cells, cytopathic effect): 0.87 µg/mL
[2]
  IC50 (neutralisation of live virus on Vero E6 cells, cytopathic effect): 1.1 µg/mL
